Data from article PMC7253169.

Assays:
[1] = target: BG505 SOSIP.664 Env trimer (UniProt Q2N0S6); test: ELISA; settings: parent: 1
[2] = target: BG505 SOSIP.664 Env trimer (HIV-1 (BG505)) (UniProt Q2N0S6)
[3] = target: BG505 SOSIP.664 Env trimer (HIV-1 (BG505)) (UniProt Q2N0S6); test: ELISA; direct ELISA: plates coated with soluble BG505 SOSIP trimer (0.2 or 2 ng/μl) in PBS pH 7.4; serially diluted Fab mutants from cell culture supernatant, room temperature 1 hour; goat anti-human lambda HRP; compared with wild-type Fab on the same plate

Substance | ratio to parent [1] | neutralization on BG505 pseudovirus; fold reduction of potency against wild-type Fab [2] | fold reduction of binding in ELISA against wild-type Fab [3]
Fab NC-Cow1 D:D26A | 0.8 | – | –
NC-Cow1 Fab AsnH100 alanine mutant | – | > 3 fold | –
Fab NC-Cow1 D:H42A | 1 | – | –
Fab NC-Cow1 D:Q34A | 1.3 | – | –
Fab NC-Cow1 D:Q14A | 0.9 | – | –
NC-Cow1 Fab TyrD31 alanine mutant | – | > 9 fold | > 9 fold
NC-Cow1 Fab LysH100b alanine mutant | – | > 3 fold | –
NC-Cow1 Fab ArgD33 alanine mutant | – | > 9 fold | > 9 fold
NC-Cow1 Fab ArgD11 alanine mutant | – | > 9 fold | > 9 fold
Fab NC-Cow1 D:R43A | 0.8 | – | –
Fab NC-Cow1 D:E1A | 1.2 | – | –
Fab NC-Cow1 D:M24A | 73.8 | – | –
Fab NC-Cow1 D:G29A | 64.2 | – | –
Fab NC-Cow1 D:Y40A | 1 | – | –
NC-Cow1 Fab GluD1 alanine mutant | – | > 3 fold | –
NC-Cow1 Fab ArgD43 alanine mutant | – | > 3 fold | –
Fab NC-Cow1 D:Q15A | 1.4 | – | –
NC-Cow1 Fab TyrD40 alanine mutant | – | > 3 fold | –
Fab NC-Cow1 D:D5A | 1.9 | – | –
NC-Cow1 Fab TyrD6 alanine mutant | – | > 9 fold | > 9 fold
Fab NC-Cow1 H:N100A | 1.6 | – | –
Fab NC-Cow1 D:S19A | 1 | – | –
NC-Cow1 Fab ArgD27 alanine mutant | – | > 9 fold | > 9 fold
Fab NC-Cow1 D:T7A | 1.3 | – | –
